Laboratory results published in patent US20180030137A1 (ADURO BIOTECH HOLDINGS EUROPE B V, published 2018).

Assays:
[1] = molecular target: Human PD-1 (Swiss-Prot entry Q15116), full length, on cells (human) (UniProt Q15116); assay: CELISA on CHO-K1.hPDCD1 cells; blocking of biotinylated hPD-L1 Fc
[2] = molecular target: Human PD-1 (Swiss-Prot entry Q15116), full length, on cells (human) (UniProt Q15116); assay: CELISA on CHO-K1.hPDCD1 cells
[3] = molecular target: Human PD-1 (Swiss-Prot entry Q15116), full length, on cells (human) (UniProt Q15116)
[4] = molecular target: T1, hPD-1/Fc fusion protein (R&D Systems) (human, UniProt Q15116 25-167); assay: BLI competition: second antibody on hPD-1/Fc held by immobilised hPD1.29H5L4 (competitor: hPD1.29H5L4)
T1 construct: Bought reagent; also called Recombinant hPD-1/Fc; not shown: Fc part of the bought fusion protein
T1 sequence (Q15116 25-167 limits assumed): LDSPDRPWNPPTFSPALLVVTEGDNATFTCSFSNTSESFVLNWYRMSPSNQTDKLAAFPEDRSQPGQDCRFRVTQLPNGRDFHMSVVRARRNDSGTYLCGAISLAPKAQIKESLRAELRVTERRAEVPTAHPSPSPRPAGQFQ

[5] = molecular target: Human PD-1 (Swiss-Prot entry Q15116), full length, on cells (human) (UniProt Q15116); assay: CELISA on CHO-K1.hPDCD1 cells; blocking of biotinylated hPD-L2 Fc
[6] = molecular target: T1, hPD-1/Fc fusion protein (R&D Systems); assay: BLI (Octet RED96), hPD-1/Fc amine-coupled, IgG in solution, 1:1 global fit
Description: This assay was, performed by coupling hPD-1/Fc fusion protein (R&D Systems) to amine-reactive second generation biosensors (Fortebio) using standard amine chemistry. […] Amine-reactive biosensors were pre-wet by immersing them in wells containing 0.1M MES pH=5.5 for 10 minutes. The biosensors were then activated using a 0.1M NHS/0.4M EDC mixture for 5 minutes. hPD-1/Fc fusion protein was coupled by immersing the biosensors in a solution of 12 ug/mL hPD-1/Fc in 0.1 M MES for 7.5 minutes. The biosensor surface was quenched using a solution of 1M ethanolamine for 5 minutes. Biosensors were equilibrated in Octet kinetics buffer (ForteBio) for 5 minutes. […] Dissociation was measured after transfer of the biosensors into kinetics buffer and monitoring of the interferometry signal for 45 minutes. The assay was run with a plate temperature of 30° C. The observed on and off rates (kobs and kd) were fit using a 1:1 binding global fit model comprising all concentrations tested, and the equilibrium binding constant KD was calculated.

[7] = molecular target: T2, Human PD-1 (Swiss-Prot entry Q15116), full length, on cells (human, UniProt Q15116 21-288); assay: CELISA on CHO-K1.hPDCD1 cells
T2 construct: Full length open reading frame of hPD-1 stably expressed on CHO-K1 cells; also endogenous PD-1 on CD3/CD28-stimulated human CD3+ T cells and PD-1 on transfected Jurkat cells; also called hPD-1; hPDCD1
T2 sequence (Q15116 21-288): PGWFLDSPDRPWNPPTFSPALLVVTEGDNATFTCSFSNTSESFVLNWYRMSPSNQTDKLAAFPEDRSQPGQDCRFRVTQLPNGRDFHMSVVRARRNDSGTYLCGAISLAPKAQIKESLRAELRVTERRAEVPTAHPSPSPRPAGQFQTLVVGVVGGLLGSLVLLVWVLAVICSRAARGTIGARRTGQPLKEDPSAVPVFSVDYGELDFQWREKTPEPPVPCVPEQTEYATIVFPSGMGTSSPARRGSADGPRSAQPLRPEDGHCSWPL
Description: (§1) To further characterize these mutant hPD-1 antibodies they were tested for binding to hPD-1 in CELISA format using CHO-K1 cells (American Type Culture Collection, Manassas, Va.), stably transfected with cDNA encoding the full length open reading frame of hPDCD1 (hPD-1), subcloned into the pCI-neo vector (Promega). Parental CHO-K1 or CHO-K1.hPDCD1 cells were seeded in culture medium (DMEM-F12 (Gibco) with 10% Fetal Bovine Serum (Hyclone) and Pen/Strep (Gibco)) in tissue culture plates and incubated for 48 hours at 37° C. Subsequently culture medium was removed and cells were incubated for 1 hour at 37° C. with the mutant hPD-1 antibodies (10 μg/ml (=66 nM) and dilutions thereof). Next, cells were washed with Phosphate-Buffered Saline/0.05% Tween (PBST) and incubated for 1 hour at 37° C. with Goat-anti-human IgG-HRP (Southern Biotech). Subsequently, cells were washed 3 times with PBST and anti-hPD1 immunoreactivity was visualized with 100 al TMB Stabilized Chromagen (Invitrogen). Reactions were stopped with 100 al 0.5 M H2SO4 and absorbances were read at 450 and 610 nm. […] Blockade of hPD-L1 binding by the mutant hPD-1 antibodies was tested in CELISA format. […] Reactions were stopped with 100 al 0.5 M H2SO4 and absorbances were read at 450 and 610 nm. Calculated IC50 values in Table 12 for the blockade of hPD-L1 represent the concentration at which half of the inhibition is observed.

[8] = molecular target: T2, Human PD-1 (Swiss-Prot entry Q15116), …; assay: cell-based or functional assay
[9] = molecular target: T2, Human PD-1 (Swiss-Prot entry Q15116), …; assay: CELISA on CHO-K1.hPDCD1 cells; blocking of biotinylated hPD-L1 Fc
Description: as §1

[10] = molecular target: T2, Human PD-1 (Swiss-Prot entry Q15116), …; assay: CELISA on CHO-K1.hPDCD1 cells; blocking of biotinylated hPD-L2 Fc
Description: Parental CHO-K1 or CHO-K1.hPDCD1 cells were seeded in tissue culture plates and incubated for 72 hours at 37° C. in culture medium. […] Cells were then washed three times with PBST followed by addition of Streptavidin-HRP conjugate on the cells, which was incubated for 1 hour at 37° C. […] Reactions were stopped with 100 al 0.5 M H₂SO₄ and absorbances were read at 450 and 610 nm. […] Calculated IC50 values represent the concentration at which half of the inhibition is observed.

Sequence of Human PD-1 (Swiss-Prot entry Q15116), full length, on cells (human) (Q15116 21-288): as above

| Binder | IC50 [1] | EC50 [2] | IC50; NFAT-luciferase signal (RLU) of Jurkat cells expressing human PD-1, with CHO cells expressing hPD-L1 [3] | Binding (nm) [4] | IC50 [5] | Kd [6] | koff [6] | kon [6] | EC50 [7] | IC50; NFAT-luciferase signal (RLU) of Jurkat cells expressing human PD-1, with CHO cells expressing hPD-L1 [8] | IC50 [9] | IC50 [10] |
| --- | --- | --- | --- | --- | --- | --- | --- | --- | --- | --- | --- | --- |
| H4H7798N (antibody, from another filing, human IgG4, V domains shown) VH: EVQLLESGGVLVQPGGSLRLSCAASGFTFSNFGMTWVRQAPGKGLEWVSGISGGGRDTYFADSVKGRFTISRDNSKNTLYLQMNSLKGEDTAVYYCVKWGNIYFDYWGQGTLVTVSS VL: DIQMTQSPSSLSASVGDSITITCRASLSINTFLNWYQQKPGKAPNLLIYAASSLHGGVPSRFSGSGSGTDFTLTIRTLQPEDFATYYCQQSSNTPFTFGPGTVVDFRR | 0.45 nM | 0.1 nM | 7.27 nM | 0.014 nm | 0.57 nM | 0.011 nM | 1.2e-05 s⁻¹ | 1.1e+06 M⁻¹ s⁻¹ |  |  |  |  |
| 5C4 (antibody, V domains shown) VH: QVQLVQSGAEVKKPGSSVKVSCKASGFTFTTYYISWVRQAPGQGLEYLGYINMGSGGTNYNEKFKGRVTITADKSTSTAYMELSSLRSEDTAVYYCAILGYFDYWGQGTMVTVSS VL: DVVMTQSPLSLPVTLGQPASISCRSSQSLLDSDGQTYLYWFQQRPGQSPRRLIYLVSTLGSGVPDRFSGSGSGTDFTLKISRVEAEDVGVYYCMQLTHEPYTFGQGTKLEIK |  |  |  |  |  | 0.014 nM | 2.9e-05 s⁻¹ | 2.1e+06 M⁻¹ s⁻¹ | 0.08 nM | 5.79 nM | 0.49 nM | 0.58 nM |
